This note sets out measurements from PMC6191436.

In this assay the target is FLAG-cyclin B1 (UniProt P14635). Put plainly: co-IP; MCF7 cells transfected with Myc-BRCA1-Δ11 and FLAG-cyclin B1, synchronised (aphidicolin 0.3 μM 24 h, release 8 h, nocodazole 100 ng/mL 24 h, release 2 h), without or with irradiation (10 Gy); anti-FLAG antibody-conjugated agarose; Western blot with anti-Myc. In general terms: A western blot detects proteins with antibodies after separation by electrophoresis.
Sequence of FLAG-cyclin B1 (P14635 whole entry): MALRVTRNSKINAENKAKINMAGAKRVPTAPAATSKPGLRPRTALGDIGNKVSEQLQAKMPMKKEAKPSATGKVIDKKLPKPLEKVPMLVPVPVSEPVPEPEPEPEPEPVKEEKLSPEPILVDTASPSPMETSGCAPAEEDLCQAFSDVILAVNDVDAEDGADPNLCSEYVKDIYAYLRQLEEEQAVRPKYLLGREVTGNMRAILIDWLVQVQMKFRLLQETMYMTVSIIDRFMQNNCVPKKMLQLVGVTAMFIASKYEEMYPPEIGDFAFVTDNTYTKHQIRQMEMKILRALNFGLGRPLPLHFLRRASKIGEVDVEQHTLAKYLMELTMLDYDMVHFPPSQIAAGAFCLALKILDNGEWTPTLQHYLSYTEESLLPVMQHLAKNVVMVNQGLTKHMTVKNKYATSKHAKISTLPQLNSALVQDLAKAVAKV

Sequence of Myc-BRCA1-Δ11 (P38398 whole entry, stated change not applied): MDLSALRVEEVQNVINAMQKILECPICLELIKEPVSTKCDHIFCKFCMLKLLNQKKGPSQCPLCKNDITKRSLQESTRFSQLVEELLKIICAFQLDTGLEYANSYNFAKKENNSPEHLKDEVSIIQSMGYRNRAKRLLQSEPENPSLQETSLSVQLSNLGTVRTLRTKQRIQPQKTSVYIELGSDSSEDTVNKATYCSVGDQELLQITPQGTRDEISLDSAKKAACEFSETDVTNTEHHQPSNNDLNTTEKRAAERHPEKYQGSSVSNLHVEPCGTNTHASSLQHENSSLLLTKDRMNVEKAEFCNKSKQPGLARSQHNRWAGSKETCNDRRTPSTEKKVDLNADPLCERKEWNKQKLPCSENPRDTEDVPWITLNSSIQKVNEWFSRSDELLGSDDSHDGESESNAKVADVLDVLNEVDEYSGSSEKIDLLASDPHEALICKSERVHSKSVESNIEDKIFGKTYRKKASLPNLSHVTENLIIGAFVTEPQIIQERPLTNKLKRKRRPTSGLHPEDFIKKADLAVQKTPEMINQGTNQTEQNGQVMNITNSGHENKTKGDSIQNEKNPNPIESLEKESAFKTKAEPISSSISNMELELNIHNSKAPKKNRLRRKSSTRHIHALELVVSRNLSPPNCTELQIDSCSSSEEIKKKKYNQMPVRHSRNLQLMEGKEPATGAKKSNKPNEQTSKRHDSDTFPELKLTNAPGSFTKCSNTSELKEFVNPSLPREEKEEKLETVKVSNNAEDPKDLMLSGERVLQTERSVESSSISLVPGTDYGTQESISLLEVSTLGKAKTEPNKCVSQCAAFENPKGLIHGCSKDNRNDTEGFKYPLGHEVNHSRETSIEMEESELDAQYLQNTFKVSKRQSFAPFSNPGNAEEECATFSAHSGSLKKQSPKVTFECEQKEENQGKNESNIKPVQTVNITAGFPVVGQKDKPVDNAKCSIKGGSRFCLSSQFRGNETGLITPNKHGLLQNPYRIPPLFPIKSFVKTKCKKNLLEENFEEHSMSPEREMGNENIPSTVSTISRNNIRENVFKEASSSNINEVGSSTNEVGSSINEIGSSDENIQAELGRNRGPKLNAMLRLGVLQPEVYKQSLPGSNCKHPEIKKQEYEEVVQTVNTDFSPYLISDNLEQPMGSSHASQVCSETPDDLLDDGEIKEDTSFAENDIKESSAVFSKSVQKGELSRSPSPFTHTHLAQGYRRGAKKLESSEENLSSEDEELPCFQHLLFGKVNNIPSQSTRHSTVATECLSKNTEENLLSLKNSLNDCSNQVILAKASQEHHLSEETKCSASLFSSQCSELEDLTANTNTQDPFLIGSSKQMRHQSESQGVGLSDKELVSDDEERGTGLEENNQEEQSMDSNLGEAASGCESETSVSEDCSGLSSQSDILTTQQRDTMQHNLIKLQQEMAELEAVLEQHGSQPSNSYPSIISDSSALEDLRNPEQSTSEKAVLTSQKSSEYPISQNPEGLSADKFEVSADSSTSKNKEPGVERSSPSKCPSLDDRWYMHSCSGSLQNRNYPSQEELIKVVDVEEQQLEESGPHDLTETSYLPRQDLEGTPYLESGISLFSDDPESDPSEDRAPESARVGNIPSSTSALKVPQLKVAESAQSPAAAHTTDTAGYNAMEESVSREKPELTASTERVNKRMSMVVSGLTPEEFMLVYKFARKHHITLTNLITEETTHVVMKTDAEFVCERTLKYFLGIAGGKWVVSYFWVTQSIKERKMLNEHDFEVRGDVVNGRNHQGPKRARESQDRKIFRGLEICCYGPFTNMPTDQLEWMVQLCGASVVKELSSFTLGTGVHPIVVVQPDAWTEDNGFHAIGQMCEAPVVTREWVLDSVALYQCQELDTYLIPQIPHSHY

As to “Myc-BRCA1-Δ11 (from UniProt P38398-5 1-721) (natural protein)”, the interaction upon irradiation relative to no irradiation (nocodazole-treated cells) was 214%.
